Assay results taken from patent US20260242735A1 (UNIVERSIT T BASEL, published 2026).

Key:
Test in all cases: flow cytometry on HEK293-T, alanine scan
[1] = target: human CD33 C101A (human, UniProt P20138 18-364)
Experimental: (§1) An alanine scan on human CD33 was performed to the determine the residues on CD33 that are involved in binding to the antibodies investigated. […] Briefly, a mutation library of CD33 was created by high-throughput, site-directed mutagenesis. Each residue was individually mutated to alanine, with alanine codons mutated to serine. The mutant library was arrayed in 384-well microplates and transiently transfected into HEK293-T. Following transfection, cells were incubated with the indicated antibodies (IgG or Fab) at concentrations pre-determined using an independent immunofluorescence titration curve on wild type CD33. […] Binding of each antibody to each mutant clone was determined in duplicates. For each point, background fluorescence was subtracted from the raw data, which were then normalized to antibody reactivity with wild type CD33.
(§2) Critical residues for antibody binding (outlined in dark grey) were residues whose mutations led to a binding of the test Abs of less than 20%. Additional secondary residues (outlined in light grey) were identified that led to a binding of the test Abs of between 20 and 40% as compared to the wild type CD33.

[2] = target: human CD33 L103A (human, UniProt P20138 18-364)
Experimental: as §1, §2

[3] = target: human CD33 S104A (human, UniProt P20138 18-364)
Experimental: as §1, §2

[4] = target: human CD33 V106A (human, UniProt P20138 18-364)
Experimental: as §1, §2

[5] = target: human CD33 D107A (human, UniProt P20138 18-364)
Experimental: as §1, §2

[6] = target: human CD33 R109A (human, UniProt P20138 18-364)
Experimental: as §1, §2

[7] = target: human CD33 R110A (human, UniProt P20138 18-364)
Experimental: as §1, §2

[8] = target: human CD33 D112A (human, UniProt P20138 18-364)
Experimental: as §1, §2

[9] = target: human CD33 F117A (human, UniProt P20138 18-364)
Chain of human CD33 F117A (P20138 18-364 F117A limits assumed): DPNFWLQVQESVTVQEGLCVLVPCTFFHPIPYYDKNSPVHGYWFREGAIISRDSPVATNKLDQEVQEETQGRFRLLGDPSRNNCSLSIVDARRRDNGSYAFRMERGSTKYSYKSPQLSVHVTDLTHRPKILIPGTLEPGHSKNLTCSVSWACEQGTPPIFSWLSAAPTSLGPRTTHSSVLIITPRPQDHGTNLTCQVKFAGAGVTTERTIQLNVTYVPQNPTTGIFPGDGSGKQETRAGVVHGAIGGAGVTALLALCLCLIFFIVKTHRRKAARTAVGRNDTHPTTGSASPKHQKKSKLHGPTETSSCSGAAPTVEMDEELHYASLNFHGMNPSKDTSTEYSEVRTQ
Experimental: as §1, §2

[10] = target: human CD33 R119A (human, UniProt P20138 18-364)
Chain of human CD33 R119A (P20138 18-364 R119A limits assumed): as the sequence (P20138 18-364 F117A limits assumed) above, with A100F, R102A counted along it
Experimental: as §1, §2

[11] = target: human CD33 R122A (human, UniProt P20138 18-364)
Experimental: as §1, §2

[12] = target: human CD33 S124A (human, UniProt P20138 18-364)
Chain of human CD33 S124A (P20138 18-364 S124A limits assumed): as the sequence (P20138 18-364 F117A limits assumed) above, with A100F, S107A counted along it
Experimental: as §1, §2

[13] = target: human CD33 T125A (human, UniProt P20138 18-364)
Chain of human CD33 T125A (P20138 18-364 T125A limits assumed): as the sequence (P20138 18-364 F117A limits assumed) above, with A100F, T108A counted along it
Experimental: as §1, §2

[14] = target: human CD33 Y129A (human, UniProt P20138 18-364)
Experimental: as §1, §2

[15] = target: human CD33 P132A (human, UniProt P20138 18-364)
Experimental: as §1, §2

[16] = target: human CD33 Q133A (human, UniProt P20138 18-364)
Experimental: as §1, §2

[17] = target: human CD33 L134A (human, UniProt P20138 18-364)
Experimental: as §1, §2

[18] = target: human CD33 S135A (human, UniProt P20138 18-364)
Chain of human CD33 S135A (P20138 18-364 S135A limits assumed): as the sequence (P20138 18-364 F117A limits assumed) above, with A100F, S118A counted along it
Experimental: as §1, §2

[19] = target: human CD33 L93A (human, UniProt P20138 18-364)
Experimental: as §1, §2

[20] = target: human CD33 V138A (human, UniProt P20138 18-364)
Experimental: as §1, §2

[21] = target: human CD33 T142A (human, UniProt P20138 18-364)
Experimental: as §1, §2

[22] = target: human CD33 P145A (human, UniProt P20138 18-364)
Experimental: as §1, §2

[23] = target: human CD33 I147A (human, UniProt P20138 18-364)
Chain of human CD33 I147A (P20138 18-364 I147A limits assumed): as the sequence (P20138 18-364 F117A limits assumed) above, with A100F, I130A counted along it
Experimental: as §1, §2

[24] = target: human CD33 P150A (human, UniProt P20138 18-364)
Experimental: as §1, §2

[25] = target: human CD33 T152A (human, UniProt P20138 18-364)
Experimental: as §1, §2

[26] = target: human CD33 L153A (human, UniProt P20138 18-364)
Experimental: as §1, §2

[27] = target: human CD33 P155A (human, UniProt P20138 18-364)
Experimental: as §1, §2

[28] = target: human CD33 G156A (human, UniProt P20138 18-364)
Experimental: as §1, §2

[29] = target: human CD33 H157A (human, UniProt P20138 18-364)
Chain of human CD33 H157A (P20138 18-364 H157A limits assumed): as the sequence (P20138 18-364 F117A limits assumed) above, with A100F, H140A counted along it
Experimental: as §1, §2

[30] = target: human CD33 N160A (human, UniProt P20138 18-364)
Experimental: as §1, §2

[31] = target: human CD33 T162A (human, UniProt P20138 18-364)
Chain of human CD33 T162A (P20138 18-364 T162A limits assumed): as the sequence (P20138 18-364 F117A limits assumed) above, with A100F, T145A counted along it
Experimental: as §1, §2

[32] = target: human CD33 V165A (human, UniProt P20138 18-364)
Chain of human CD33 V165A (P20138 18-364 V165A limits assumed): as the sequence (P20138 18-364 F117A limits assumed) above, with A100F, V148A counted along it
Experimental: as §1, §2

[33] = target: human CD33 S166A (human, UniProt P20138 18-364)
Chain of human CD33 S166A (P20138 18-364 S166A limits assumed): as the sequence (P20138 18-364 F117A limits assumed) above, with A100F, S149A counted along it
Experimental: as §1, §2

[34] = target: human CD33 W167A (human, UniProt P20138 18-364)
Experimental: as §1, §2

[35] = target: human CD33 P96A (human, UniProt P20138 18-364)
Experimental: as §1, §2

[36] = target: human CD33 S97A (human, UniProt P20138 18-364)
Chain of human CD33 S97A (P20138 18-364 S97A limits assumed): as the sequence (P20138 18-364 F117A limits assumed) above, with S80A, A100F counted along it
Experimental: as §1, §2

Chain of human CD33 L103A (P20138 18-364 L103A limits assumed): as the sequence (P20138 18-364 F117A limits assumed) above, with L86A, A100F counted along it
Chain of human CD33 S104A (P20138 18-364 S104A limits assumed): as the sequence (P20138 18-364 F117A limits assumed) above, with S87A, A100F counted along it
Chain of human CD33 V106A (P20138 18-364 V106A limits assumed): as the sequence (P20138 18-364 F117A limits assumed) above, with V89A, A100F counted along it

Binder	Mean % WT Binding [2] [% WT binding]	Mean % WT Binding [3] [% WT binding]	Mean % WT Binding [4] [% WT binding]	Mean % WT Binding [5] [% WT binding]	Mean % WT Binding [6] [% WT binding]	Mean % WT Binding [7] [% WT binding]	Mean % WT Binding [8] [% WT binding]	Mean % WT Binding [9] [% WT binding]	Mean % WT Binding [10] [% WT binding]	Mean % WT Binding [11] [% WT binding]	Mean % WT Binding [12] [% WT binding]	Mean % WT Binding [13] [% WT binding]	Mean % WT Binding [15] [% WT binding]	Mean % WT Binding [16] [% WT binding]	Mean % WT Binding [17] [% WT binding]	Mean % WT Binding [18] [% WT binding]	Mean % WT Binding [19] [% WT binding]	Mean % WT Binding [21] [% WT binding]	Mean % WT Binding [22] [% WT binding]	Mean % WT Binding [23] [% WT binding]	further results
Refmab #1 (antibody, V domains shown, The alanine scan used IgG or Fab; also called hP67.6) VH: EVQLVQSGAEVKKPGSSVKVSCKASGYTITDSNIHWVRQAPGQSLEWIGYIYPYNGGTDYNQKFKNRATLTVDNPTNTAYMELSSLRSEDTAFYYCVNGNPWLAYWGQGTLVTVSS VL: DIQLTQSPSTLSASVGDRVTITCRASESLDNYGIRFLTWFQQKPGKAPKLLMYAASNQGSGVPSRFSGSGSGTEFTLTISSLQPDDFATYYCQQTKEVPWSFGQGTKVEVK	96.3	89	88.5	87.7	101	94.9	51.8	98.7	109	107	87.5	92.4	107	95.6	95.4	98.6	88.6	85.1	89.3	71.6	Mean % WT Binding [1]: 1.1 % WT binding; Mean % WT Binding [14]: 53.2 % WT binding; Mean % WT Binding [20]: 72.3 % WT binding; Mean % WT Binding [24]: 78.4 % WT binding; Mean % WT Binding [25]: 86.3 % WT binding; Mean % WT Binding [26]: 75.7 % WT binding; Mean % WT Binding [27]: 84.4 % WT binding; Mean % WT Binding [28]: 83.4 % WT binding; Mean % WT Binding [29]: 86.6 % WT binding; Mean % WT Binding [30]: 82.3 % WT binding; Mean % WT Binding [31]: 86.9 % WT binding; Mean % WT Binding [32]: 91.6 % WT binding; Mean % WT Binding [33]: 98.3 % WT binding; Mean % WT Binding [34]: 89.4 % WT binding; Mean % WT Binding [35]: 84.9 % WT binding; Mean % WT Binding [36]: 92.5 % WT binding
Refmab #3 (antibody, V domains shown, The alanine scan used IgG or Fab) VH: QVQLVQSGAEVKKPGSSVKVSCKASGYTFTDYNMHWVRQAPGQGLEWIGYIYPYNGGTGYNQKFKSKATITADESTNTAYMELSSLRSEDTAVYYCARGRPAMDYWGQGTLVTVSS VL: DIQMTQSPSSLSASVGDRVTITCRASESVDNYGISFMNWFQQKPGKAPKLLIYAASNQGSGVPSRFSGSGSGTDFTLTISSLQPDDFATYYCQQSKEVPWTFGQGTKVEIK	113	102	85.7	92.5	112	99.1	77.5	166	1020	177	274	932	74.5	101	81.4	107	120	133	75.2	67.1	Mean % WT Binding [20]: 129 % WT binding; Mean % WT Binding [24]: 102 % WT binding; Mean % WT Binding [25]: 155 % WT binding; Mean % WT Binding [26]: 144 % WT binding; Mean % WT Binding [27]: 114 % WT binding; Mean % WT Binding [28]: 116 % WT binding; Mean % WT Binding [29]: 138 % WT binding; Mean % WT Binding [30]: 99.3 % WT binding; Mean % WT Binding [31]: 109 % WT binding; Mean % WT Binding [32]: 116 % WT binding; Mean % WT Binding [33]: 131 % WT binding; Mean % WT Binding [34]: 129 % WT binding; Mean % WT Binding [35]: 140 % WT binding; Mean % WT Binding [36]: 90.4 % WT binding
Refmab #4 (antibody, V domains shown, The alanine scan used IgG or Fab) VH: QVQLVQSGAEVKKPGESVKVSCKASGYTFTNYGMNWVKQAPGQGLEWMGWINTYTGEPTYADKFQGRVTMTTDTSTSTAYMEIRNLGGDDTAVYYCARWSWSDGYYVYFDYWGQGTSVTVSS VL: DIVMTQSPDSLTVSLGERTTINCKSSQSVLDSSTNKNSLAWYQQKPGQPPKLLLSWASTRESGIPDRFSGSGSGTDFTLTIDSPQPEDSATYYCQQSAHFPITFGQGTRLEIK	85.9	86.4	110	93	99.5	88.4	36	142	138	23	58.8	218	70.1	96	82.2	109	63.9	88.8	78.8	58.7	Mean % WT Binding [1]: 1.5 % WT binding; Mean % WT Binding [14]: 319 % WT binding; Mean % WT Binding [24]: 103 % WT binding; Mean % WT Binding [25]: 110 % WT binding; Mean % WT Binding [26]: 92.5 % WT binding; Mean % WT Binding [27]: 111 % WT binding; Mean % WT Binding [28]: 67.2 % WT binding; Mean % WT Binding [29]: 97.4 % WT binding; Mean % WT Binding [30]: 102 % WT binding; Mean % WT Binding [31]: 79.9 % WT binding; Mean % WT Binding [32]: 117 % WT binding; Mean % WT Binding [33]: 110 % WT binding; Mean % WT Binding [34]: 112 % WT binding; Mean % WT Binding [35]: 27.4 % WT binding; Mean % WT Binding [36]: 121 % WT binding
